Assay results as given in the DeepSol protein solubility set.

Test: soluble on expression in E. coli; label from the status in PepcDB or PDB records

Row | Sequence | soluble on expression in E. coli
1 | MYKVSHGLSMVHEDEMGVNAPMDHQRVISKLNVGLGKLFYYDKAISLEPLPETMLDEGRTSRYDGPPTPDLILYDKARDHIPVIIEVCHTRGLKGDLQKVVSLIEDFPYDILEGFVYNYRTEHWFRYRKGDNGIATETSFSEILQLDLNQFL | not soluble
2 | MSLEWQDLAQLPVSIFKDYVTDAQDAEKPFIWTEVFLREINRSNQEIILHIWPMTKTVILGMLDRELPHLELAKKEIISRGYEPVVRNFGGLAVVADEGILNFSLVIPDVFERKLSISDGYLIMVDFIRSIFSDFYQPIEHFEVETSYCPGKFDLSINGKKFAGLAQRRIKNGIAVSIYLSVCGDQKGRSQMISDFYKIGLGDTGSPIAYPNVDPEIMANLSDLLDCPMTVEDVIDRMLISLKQVGFNDRLLMIRPDLVAEFDRFQAKSMANKGMVSRDEEGHHHHHH | soluble
3 | MKGVRSMMGNLVITIGRECGSAGRLIGQKLAADLGVKCYDKELLTLAAKNSGLCEELFKTHDEKPTSSFLYSLVMDTYSLGYNTSAYMDMPINHKIFLAQFDTIKKLAEEESCVIVGRCADYALADYPNTVSVFICGDEEDKIRHLMERHNVDEAKAKDIMIKTDKRRASYYNYYSSKRWGSCKSYDMCISSSAVGYDGAVDIIKEFAKKKQEFLKTKNYK | not soluble
4 | PTAGADTIEYCVTHSESKALIGGKLDDPAATQQVIDAMPELISIALPYDSAPQCQYQFNALIADAVPSEERPQHYDDKLMSLVYTSGTSGLPKGAMLTYGAFSWSVQQLINHIGIQANDRLFSYLPLAHITER | not soluble
5 | MGSSHHHHHHSSGLVPRGSHMDLSAASHRIPLSDGNSIPIIGLGTYSEPKSTPKGACATSVKVAIDTGYRHIDGAYIYQNEHEVGEAIREKIAEGKVRREDIFYCGKLWATNHVPEMVRPTLERTLRVLQLDYVDLYIIEVPMAFKPGDEIYPRDENGKWLYHKSNLCATWEAMEACKDAGLVKSLGVSNFNRRQLELILNKPGLKHKPVSNQVECHPYFTQPKLLKFCQQHDIVITAYSPLGTSRNPIWVNVSSPPLLKDALLNSLGKRYNKTAAQIVLRFNIQRGVVVIPKSFNLERIKENFQIFDFSLTEEEMKDIEALNKNVRFVELLMWRDHPEYPFHDEY | soluble
6 | GVSVDARIAKNVEEFLAAAQEINPSYHLISGYRSVAYQTELYNSYVQQEMADDPTLTESQAEKKVQTYSQPPGASEHQTGLAIDMSTVDSLDEADPATVAKVKKIAPKYGFVLRFPDGKTSSTGVGYEDWHFRYVGKESAEYMTEHNLTLEEYLVLLKEKTK | not soluble
7 | MDSRTKGKTVMEVGGDGVAVITLINPPVNSLSFDVLYNLKSNYEEALSRNDVKAIVITGAKGRFSGGFDISGFGEMQKGNVKEPKAGYISIDIITDLLEAARKPSVAAIDGLALGGGLELAMACHARISAPAAQLGLPELQLGVIPGFGGTQRLPRLVGLTKALEMILTSKPVKAEEGHSLGLIDAVVPPAELVTTARRWALDIVGRRKPWVSSVSKTDKLPPLGEAREILTFAKAQTLKRAPNMKHPLMCLDAIEVGIVSGPRAGLEKEAEVASQVVKLDTTKGLIHVFFSQRGTAKVPGVTDRGLVPRKIKKVAIIGGGLMGSGIATALILSNYPVILKEVNEKFLEAGIGRVKANLQSRVRKGSMSQEKFEKTMSLLKGSLDYESFRDVDMVIEAVIENISLKQQIFADLEKYCPQHCILASNTSTIDLNKIGERTKSQDRIVGAHFFSPAHIMPLLEIVRTNHTSAQVIVDLLDVGKKIKKTPVVVGNCTGFAVNRMFFPYTQAAMFLVECGADPYLIDRAISKFGMPMGPFRLCDLVGFGVAIATATQFIENFSERTYKSMIIPLMQEDKRAGEATRKGFYLYDDKRKAKPDPELKKYIEKARSISGVKLDPKLANLSEKDIIEMTFFPVVNEACRVFAEGIAVKAADLDIAGIMGMGFPPYRGGIMFWADSIGSKYIYSRLDEWSKAYGEFFKPCAFLAERGSKGVLLSAPVKQASSRL | soluble
8 | VTVTLCSPTEDDWPGMFLLAAASFTDFIGPESATAWRTLVPTDGAVVVRDGAGPGSEVVGMALYMDLRLTVPGEVVLPTAGLSFVAVAPTHRRRGLLRAMCAELHRRIADSGYPVAALHASEGGIYGRFGYGPATTLHELTVDRRFARFHADAPGGGLGGSSVRLVRPTEHRGEFEAIYERWRQQVPGGLLRPQVLWDELLAECKAAPGGDRESFALLHPDGYALYRVDRTDLKLARVSELRAVTADAHCALWRALIGLDSMERISIITHPQDPLPHLLTDTRLARTTWRQDGLWLRIMNVPAALEARGYAHEVGEFSTVLEVSDGGRFALKIGDGRARCTPTDAAAEIEMDRDVLGSLYLGAHRASTLAAANRLRTKDSQLLRRLDAAFASDVPVQTAFEF | not soluble
9 | MAWLRFFSRTLKSLPQISSSSPNPNPNFRTSPFSTSFLITKTPDKLKKKRKKPESARTKSIQHESTKLPHLESLVSRDAHFRFLIRSKEFISKQPERILRLDDAGKLYRELGFPRGRKVTKFIPKHPLIFQTYRHSDGKIWLGFTEFMEDLLDEEKGLMESMELDRVNCVRKLLMMTKDKRILLSKIHHTRLLFGIPEDFRDRVAKYPDYFRVVTGGDGNRVLELVNWDTNLAHGKELELEEKDTRKLNLLNTFPLVSPYSDGWKLDVWSLEAEKYRVGIVHEFLNLTLEKRASIHHIVEFKDEFSLTRQTYQMLKKQSMSFYLAGTEMNWTVFLKDAYDENGVLVSKDPQVVFNEKLYKYADMQQMEQVG | soluble
10 | HRQLLSRDTHGFNVTVTSTIPEDAGLGDQEALIMAAALAFAHDYEDVHTAPIKAKFADVCFQASQAATGRPHVRARFDSALRGLASDLNIVDYSDGSVTHFPHPLNTQSDYAAFVVIPPVGAEQTAEVERRQAFITSAEKAFGTDSLRVLPDARERVIEWLQAVHEVCGTDDVPTITEAANWLEFMENETQAAINAAQAIKSRRHAACFDIVSESQRNLESLYTITTTDAMLSQLCLSRGAVSAR | not soluble
11 | MNKKHVVILGAGYAGLKTLRELQKGAKDVEITLVDRNNYHYEATDLHEVAAGTQPAEKITYNIMDVVDEKMTTFIQGTVKTIDAATQTVALEDGQTINYDYLVVSLGFESESFGIPGVQEHALQMVDVKTALNVYEHIQEQMRQYKATQNEEFLKIVVCGAGFTGIELLGSLVENKPKFAEIAGVSADQIQIYCVEAVTRLLPMFNEKLANYGVQLLKDSAIHLLLGKPIKEIKPGAVVYQDNEAGDLAELSAKTIIWTTGVSGSHVVGDSGFEARRGRVMVQPDLTDANHSNVYIIGDCSAVMDTETNRPYPTTAQIALKMGAHAAKNIQAQLKGEATKPFSFKSQGSVCSVGNTRALGIVGKTDIKGYPASFMKKIIMNKALFETGGTKEMMAKGRFDLYH | not soluble
12 | MLIEMWSPVFKKHGEIREPICFHHGLNVIMGMDLADNSIGKSSSLLAIDFIFGGNSYLKSIAVKKLGDHPIYFCFQFEKKFYFSRDTANPDIILVCDKSYSPTGETMDLGIFLNKLKKRYHLDSPELSFRLAMSGFFRIAGKSNQNTDFPLQVYSSQKSSESITTLIQLFNLYDNIARYKERLKDKSDQLTTFRNARRYAFISNLVGGKKQFEANVSEIKRLEYDLAHLQDTHQDKIDSDDI | not soluble
13 | GMLEFTKRSLMNKYNINERVLELYERALNDVEKEFKYYDEIREYNQLKVLKAFQEERISESHFTNSSGYGYNDIGRDSLDRVYANIFNTESAFVRPHFVNGTHAIGAALFGNLRPNDTMMSICGMPYDTLHDIIGMDDSKKVGSLREYGVKYKMVDLKDGKVDINTVKEELKKDDSIKLIHIQRSTGYGWRKSLRIAEIAEIIKSIREVNENVIVFVDNCYGEFVEEKEPTDVGADIIAGSLIKNIGGGIATTGGYIAGKEEYVTQATFRVTVPGIGGECGSTFGVMRSLYEGLFMAPHVTIEAVKGAVFCARIMELAGFDVLPKYNDKRTDIIQAIKFNDEKKLIDFIKGIQTASPVDSFVQCEAWDMPGYEDKVIMAAGTFVQGASIELSADAPIREPYIGYLQGGLTFDHAKLGVLIALSKLIM | soluble
14 | MIRTDNLSDLASARDYWRTDKYISFVITFQFYLLLDTMSDSFNWPAGNNEARERLGEKFESLHLDSRISTSHAKPLSNADPVVVPIYHSSTYRFKTVDQFNEDNHGANFVYRRCGNPTTENVEVVINEIEGGAGSLLYNSGLAAISAVFLEFLSSGAHMIVMNPIYSGTSSFINETLARFGVEITSVDVEKEKDFAGAVEKAIRPNTKMIYFESIANPTMAVPDILGTIEVAKKYKILTCLDATFSSPYNIQPLKLGADISLHSCSKYIGGHTDVIAGVVTVSSYDNWKKLKLQQLTTGSSLSPYDAALLTRGLKTLGLRVDRISENAQKTAEFLESHPKVERVFYPGLPSHPQHQYAKQVMKQFAGMIAFDVGTAENAIKLVESLKLIIHAVSLGGTESLIEHPLSMSHGKHLLRYLDGPTVAPGLLRFSVGIENVEDIIGDLNDALEKL | not soluble
15 | MAHHHHHHMGGQSSVTTTPEQIPVNGKSLDWGPPPDDIPEEERDNEELVLQTWAFCKAKPSPAQNYRSDVEERKRRQSMLWRKRASFIELDCGEDSFFVSNTYKVIGVADGVGGWRDEGVDASHFANSLMENAKHFSETHRKELNPEVILQSAFDKVLHDKVVKAGSSTACVVALQKDSSGEHYLDVANVGDSGVLVVRNRQVQHRVHEKVHGFNAPFQLAVLPPHLQGRAFSDRVSDATREKIPVQRGDVVITGTDGLFDNRFNISLAADAGWIGHVQGSALERVPLVGLLLGPIFANDKVAYVDPQRVAQRIVQDAYKTSLDESAHTPWASMLRKFGVEDAKGGKVDDITLVLSRVTTREELNATSTW | not soluble
16 | ADTMTFTAKNGNVTFDHKKHQTIVPDCAVCHGKTPGKIEGFGKEMAHGKSCKGCHEEMKKGPTKCGECHKK | soluble
17 | MLCSRYFTSSLFLWGEALPTLLEEFLNEVEKMLKNQVNTRRIHQLLKELDDPLLENKDLEEKLQAFLDYVKEIPNLPEARKRYRIQKSLEMIEKLRSWFLIDYLECSGEEVDLSTDIQYAKGVGPNRKKKLKKLGIETLRDLLEFFPRDYEDRRKIFKLNDLLPGEKVTTQGKIVSVETKKFQNMNILTAVLSDGLVHVPLKWFNQDYLQTYLKQLTGKEVFVTGTVKSNAYTGQYEIHNAEVTPKEGEYVRRILPIYRLTSGISQKQMRKIFEENIPSLCCSLKETLPERILEKRKLLGVKDAYYGMHFPKTFYHLEKARERLAYEELFVLQLAFQKIRKEREKHGGIPKKIEGKLAEEFIKSLPFKLTNAQKRAHQEIRNDMISEKPMNRLLQGDVGSGKTVVAQLAILDNYEAGFQTAFMVPTSILAIQHYRRTVESFSKFNIHVALLIGATTPSEKEKIKSGLRNGQIDVVIGTHALIQEDVHFKNLGLVIIDEQHRFGVKQREALMNKGKMVDTLVMSATPIPRSMALAFYGDLDVTVIDEMPPGRKEVQTMLVPMDRVNEVYEFVRQEVMRGGQAFIVYPLIEESDKLNVKSAVEMYEYLSKEVFPEFKLGLMHGRLSQEEKDRVMLEFAEGRYDILVSTTVIEVGIDVPRANVMVIENPERFGLAQLHQLRGRVGRGGQEAYCFLVVGDVGEEAMERLRFFTLNTDGFKIAEYDLKTRGPGEFFGVKQHGLSGFKVADLYRDLKLLEWAREDVQEIDVEGIELPEEIKLIEVG | soluble
18 | MQDGMYQRFLRQHVHPEETGGSDRYCNLMMQRRKMTLYHCKRFNTFIHEDIWNIRSICSTTNIQCKNGKMNCHEGVVKVTDCRDTGSSRAPNCRYRAIASTRRVVIACEGNPQVPVHFDG | soluble
19 | MIVALGADLVEIARVERLLSRHGERALRRLFHEEEVAYALARQNPFPSLAARLAAKEAFQKCWPESLSWKEVWVGMEGKRPALRFAPRIEARMAEEGLFAHLSLSHERSHALAVVVLEARARGGG | soluble
20 | MSLTLIYGHRGAKGEAPENTLASFQRCLEHGVNRCELDLHLSRDGELMVIHDPTLKRTTGRRGKVAEHDAATLATYDARKGGPGWVRPTPIPRLEELFEKCPFEHWQLEVKSASRERAARTVTRIRELTERFGNRDKVTVTSGSRTVLKALNELTPELSRGLVAEYAWLDPLKVAQHYGCALLALNWTLCTPERLLKAQRQGLHVSVWTVNEPALMRRLADFGVDSLITDFPGLASATLGNEGHHHHHH | not soluble
